The values below come from patent US20110275569A1, “PROTEASES TARGETING AGENTS” (CONSIGLIO NAZIONALE DELLE RICERCHE, priority 2008, published 2011).

Series [1] addresses T1, carboxypeptidase Y (Saccharomyces cerevisiae, UniProt P00729).
T1 sequence (P00729 112-532): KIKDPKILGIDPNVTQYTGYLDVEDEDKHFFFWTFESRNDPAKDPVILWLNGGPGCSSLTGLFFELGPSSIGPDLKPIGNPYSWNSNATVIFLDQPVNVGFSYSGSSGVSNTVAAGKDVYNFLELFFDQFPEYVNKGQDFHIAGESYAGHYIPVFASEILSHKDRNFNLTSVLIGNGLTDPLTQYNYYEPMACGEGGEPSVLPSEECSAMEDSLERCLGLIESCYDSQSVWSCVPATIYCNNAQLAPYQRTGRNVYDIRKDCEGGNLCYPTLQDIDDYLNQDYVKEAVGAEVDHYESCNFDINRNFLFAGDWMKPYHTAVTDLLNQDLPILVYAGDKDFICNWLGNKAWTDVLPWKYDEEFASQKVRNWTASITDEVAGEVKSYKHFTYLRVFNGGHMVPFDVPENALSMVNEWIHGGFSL
The following applies: read-out: inhibition constant, carboxypeptidase Y; cited from earlier work.

Another series has as its target porcine elastase (Sus scrofa, UniProt P00772). In words: Inhibition of porcine elastase by the S. solfataricus inhibitor. It is filed as biochemical. The method, then:
(§1) To identify the biological function of the purified inhibitor Sso0767 (SsCEI), the ability to inhibit a number of proteases was tested. The set of the proteases examined includes: the alpha-chymotrypsin, trypsin, elastase, carboxypeptidase Y, subtilisin, thrombin and two thermophilic proteases, the kumamolisin-ac and pernisine. […] The specific interaction between the inhibitor and the target proteases was also examined by incubating Sso1273 in a reaction mixture containing all the proteases investigated. In these conditions, the catalytic performance of the inhibitor was identical to that observed by assaying each protease alone.
(§2) In Table II are reported Ki and IC50 values that are the average of 3-5 separate determinations.

Another series addresses bovine α-chymotrypsin (Bos taurus, UniProt P00766). The experiment in a line: Inhibition of bovine alpha-chymotrypsin by the S. solfataricus inhibitor. The format is biochemical. The method, then:
as §1
The inhibition of Sso1273 (SsCEI) versus α-chymotrypsin followed a hyperbolic pattern with increasing concentrations of the inhibitor and the IC50 value (50% inhibitory concentration) was 0.10 μM (Table II).
The reciprocals of the rate of the substrate hydrolysis for each inhibitor concentration were plotted against the reciprocals of the substrate concentrations. Ki was determined from the formula as per the competitive type of inhibition.
as §2

For series [2], the target named is T1, carboxypeptidase Y. In words: Protease specificity panel: carboxypeptidase Y. The format is biochemical. The method, then:
as §1

The subject of another series is trypsin. In words: Protease specificity panel: trypsin. The format is biochemical. The method, then: as §1
Another series has as its system thrombin. In words: Protease specificity panel: thrombin. It is filed as biochemical. The method, then:
as §1

For the next series, the system named is subtilisin. The experiment in a line: Protease specificity panel: subtilisin. The format is biochemical. On the procedure:
as §1

A short description of series [3]: Stability of the purified inhibitor (heat, denaturants, digestive proteases). The format is physicochemical.

porcine elastase, sequence (P00772 27-266): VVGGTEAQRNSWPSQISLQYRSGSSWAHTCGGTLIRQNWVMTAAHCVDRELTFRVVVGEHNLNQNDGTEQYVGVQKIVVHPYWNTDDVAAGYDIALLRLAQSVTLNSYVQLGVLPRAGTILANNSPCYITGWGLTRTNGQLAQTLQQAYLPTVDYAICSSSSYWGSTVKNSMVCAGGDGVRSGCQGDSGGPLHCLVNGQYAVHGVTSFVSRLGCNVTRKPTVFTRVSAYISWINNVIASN

B1: TFS1: protein of the yeast, founder of the family I51, able to inhibit the carboxypeptidase Y (protein, UniProt P14306 1-219, looked up)
Carboxypeptidase Y inhibitor: MNQAIDFAQASIDSYKKHGILEDVIHDTSFQPSGILAVEYSSSAPVAMGNTLPTEKARSKPQFQFTFNKQMQKSVPQANAYVPQDDDLFTLVMTDPDAPSKTDHKWSEFCHLVECDLKLLNEATHETSGATEFFASEFNTKGSNTLIEYMGPAPPKGSGPHRYVFLLYKQPKGVDSSKFSKIKDRPNWGYGTPATGVGKWAKENNLQLVASNFFYAETK
B1: the Ki with carboxypeptidase Y [1] was 1.8 nM.

B2: Sso0767: recombinant protease inhibitor protein from Sulfolobus solfataricus, PEBP family I51, monomer of 19.0 kDa, 157 amino acids (protein, listed as Sulfolobus solfataricus)
chain: MNSESIYSMRVVSSAFKNEDFIPIKYTCDGQDLSPELEWDLVTNAKSYAIIVEDPDAPGGTFIHWVIYNITTNRLPEGVPRLYKSQYGVQGVNDFGNIGYNGPCPPKTHPPHRYYFYVYAIDTILLEIKNINADKLKSLMEGHGIERGFVMGKYKRK
B2: the “inhibition activity versus elastase (in words)” value in the series with porcine elastase was “clear activity”. Besides, the “inhibition activity toward α-chymotrypsin (in words)” value with bovine α-chymotrypsin is recorded as “best target protease among those tested”. In addition, in the series with bovine α-chymotrypsin (Lineweaver-Burk reciprocal plot), the “type of inhibition of α-chymotrypsin” value is recorded as “competitive inhibitor”. Further, in the series with carboxypeptidase Y [2], the “effect on carboxypeptidase Y” value is “not affected”. For the same molecule, in the series on trypsin, the effect on trypsin entry was “not affected”. The effect on thrombin result with thrombin was “not affected”. Also, in the series with subtilisin, the effect on subtilisin result was “not affected”. For the same molecule, in series [3], the “resistance to common protein denaturants” value was “high resistance”. Further, the “thermostability: inhibitory activity after incubation” value in series [3] (4 days at 90° C.) is “no reduction in inhibitory activity”. Moreover, the “resistance to digestive proteases” value in series [3] (several digestive proteases) is recorded as “resistant”.
